Results from US20140087995A1 (published 2014).
Where two headings read alike, the source gives them in different places. Numbered stars: 1 amine (or outer) side, 2 acyl side, 3 side chain; on linkers, the order of the positions; unused ones are H or OH. Bridge positions count the residues as written; N and C are the ends. Side chains are listed from the residue outwards. Ends that are not written are not given here. * marks the point of attachment. C20 diacid = O=C(O)CCCCCCCCCCCCCCCCCCC(=O)*; γGlu = O=C(O)[C@H](CCC(=O)[*:2])N[*:1]; AEEA = NCCOCCOCC(=O)O

T1: rat amylin receptor (rat calcitonin receptor + rat RAMP 3) (rat, UniProt P32214 25-516; Q9JJ73 23-147)
T1 construct: whole, on cells; membranes of transiently transfected BHK tk'ts 13 cells (Assay VI); also called rAmylin-R; rat amylin 3(a) receptor
T1 sequence (looked up) 1: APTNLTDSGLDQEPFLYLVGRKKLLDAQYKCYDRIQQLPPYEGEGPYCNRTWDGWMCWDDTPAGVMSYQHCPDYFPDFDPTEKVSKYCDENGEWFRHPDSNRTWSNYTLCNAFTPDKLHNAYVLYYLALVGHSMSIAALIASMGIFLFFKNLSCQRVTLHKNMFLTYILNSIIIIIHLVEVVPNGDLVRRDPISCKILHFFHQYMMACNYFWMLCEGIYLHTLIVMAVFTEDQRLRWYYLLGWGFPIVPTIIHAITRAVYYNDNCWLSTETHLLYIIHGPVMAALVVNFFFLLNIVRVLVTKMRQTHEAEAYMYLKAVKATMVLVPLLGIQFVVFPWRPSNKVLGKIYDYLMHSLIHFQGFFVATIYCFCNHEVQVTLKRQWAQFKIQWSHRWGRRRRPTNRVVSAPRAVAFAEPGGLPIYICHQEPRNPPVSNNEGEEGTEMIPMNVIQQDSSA
T1 sequence (looked up) 2: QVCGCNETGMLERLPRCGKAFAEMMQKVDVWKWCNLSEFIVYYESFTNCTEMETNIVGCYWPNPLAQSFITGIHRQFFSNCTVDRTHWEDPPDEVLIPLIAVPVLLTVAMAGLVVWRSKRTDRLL

T2: rat calcitonin receptor (rat, UniProt P32214 25-516)
T2 construct: whole, on cells; membranes of transiently transfected BHK tk'ts 13 cells (Assay VIII); also called rCTR; rat calcitonin (a) receptor
T2 sequence (looked up): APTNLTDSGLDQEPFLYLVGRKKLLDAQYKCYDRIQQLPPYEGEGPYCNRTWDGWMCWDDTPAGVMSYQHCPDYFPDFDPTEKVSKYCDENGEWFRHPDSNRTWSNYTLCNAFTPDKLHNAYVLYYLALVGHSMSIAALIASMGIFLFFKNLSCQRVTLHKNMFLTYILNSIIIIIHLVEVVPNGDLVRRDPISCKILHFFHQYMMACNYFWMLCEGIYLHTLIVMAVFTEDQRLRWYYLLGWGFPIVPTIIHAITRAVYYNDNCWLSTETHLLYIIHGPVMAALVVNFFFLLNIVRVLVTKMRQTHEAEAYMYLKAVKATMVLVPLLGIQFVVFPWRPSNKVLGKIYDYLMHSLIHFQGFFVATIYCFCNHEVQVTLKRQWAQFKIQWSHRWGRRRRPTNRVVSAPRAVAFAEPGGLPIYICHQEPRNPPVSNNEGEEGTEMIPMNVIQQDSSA

T3: human calcitonin receptor (human, UniProt P30988 25-474)
T3 sequence (looked up): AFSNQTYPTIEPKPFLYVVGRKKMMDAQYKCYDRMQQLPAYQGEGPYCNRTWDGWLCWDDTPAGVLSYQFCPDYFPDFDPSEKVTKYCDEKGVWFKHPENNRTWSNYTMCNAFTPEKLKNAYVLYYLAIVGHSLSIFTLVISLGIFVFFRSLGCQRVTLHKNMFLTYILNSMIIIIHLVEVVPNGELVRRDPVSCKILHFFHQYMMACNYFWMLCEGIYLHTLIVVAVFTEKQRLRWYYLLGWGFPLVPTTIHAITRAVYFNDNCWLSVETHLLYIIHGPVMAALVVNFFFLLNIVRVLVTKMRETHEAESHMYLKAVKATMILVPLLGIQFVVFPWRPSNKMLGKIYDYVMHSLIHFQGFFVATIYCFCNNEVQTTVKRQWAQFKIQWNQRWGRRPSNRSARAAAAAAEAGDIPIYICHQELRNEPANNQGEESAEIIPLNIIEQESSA

T4: human amylin 3(a) receptor (human calcitonin receptor plus RAMP-3) (human, UniProt P30988 25-474; O60896 24-148, limits assumed)
T4 sequence (looked up) 1: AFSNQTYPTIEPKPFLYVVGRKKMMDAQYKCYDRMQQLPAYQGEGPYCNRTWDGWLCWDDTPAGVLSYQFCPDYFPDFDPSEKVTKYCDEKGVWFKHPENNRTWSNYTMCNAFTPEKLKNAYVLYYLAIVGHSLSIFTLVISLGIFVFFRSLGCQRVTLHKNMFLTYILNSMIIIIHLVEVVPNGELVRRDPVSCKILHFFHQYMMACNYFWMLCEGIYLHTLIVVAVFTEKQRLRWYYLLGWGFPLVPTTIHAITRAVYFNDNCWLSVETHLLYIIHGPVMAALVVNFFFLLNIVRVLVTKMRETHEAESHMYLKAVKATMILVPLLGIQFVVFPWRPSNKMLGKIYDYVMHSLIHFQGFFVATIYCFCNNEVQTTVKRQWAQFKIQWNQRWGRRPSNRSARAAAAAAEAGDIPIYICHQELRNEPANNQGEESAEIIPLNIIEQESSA
T4 sequence (looked up) 2: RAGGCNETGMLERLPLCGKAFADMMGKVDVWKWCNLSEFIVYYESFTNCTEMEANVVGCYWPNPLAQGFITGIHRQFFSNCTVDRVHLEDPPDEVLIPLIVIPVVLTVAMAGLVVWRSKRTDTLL

T5: human calcitonin receptor (human, UniProt P30988 25-474)
T5 sequence (looked up): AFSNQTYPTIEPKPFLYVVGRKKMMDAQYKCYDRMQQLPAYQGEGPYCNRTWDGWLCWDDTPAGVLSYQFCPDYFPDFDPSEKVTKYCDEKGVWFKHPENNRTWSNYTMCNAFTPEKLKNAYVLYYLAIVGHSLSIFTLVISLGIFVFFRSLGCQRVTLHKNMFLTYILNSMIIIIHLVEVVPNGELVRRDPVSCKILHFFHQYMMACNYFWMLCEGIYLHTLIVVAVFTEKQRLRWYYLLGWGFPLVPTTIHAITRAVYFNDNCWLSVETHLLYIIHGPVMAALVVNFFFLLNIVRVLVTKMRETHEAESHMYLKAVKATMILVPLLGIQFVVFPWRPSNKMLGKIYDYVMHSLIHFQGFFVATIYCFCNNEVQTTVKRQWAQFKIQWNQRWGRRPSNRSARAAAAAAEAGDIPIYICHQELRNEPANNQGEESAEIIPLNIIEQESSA

B1: N^ε1-[2-[2-[2-[[(4S)-4-carboxy-4-(19-carboxynonadecanoylamino)butanoyl]amino]ethoxy]ethoxy]acetyl]-[Arg17,Pro21,Pro27,Arg35]-h-amylin (peptide)
peptide: K([AEEA-γGlu-C20 diacid])CNTATCATQRLANFLRHSSPNFGAIPSSTNVGSRTY-NH2
modifications: disulfide 2-7 (inferred)
notes: analogue of human amylin; also called compound 38
B2: N^ε1-[(4S)-4-carboxy-4-[[(4S)-4-carboxy-4-(19-carboxynonadecanoylamino)butanoyl]amino]butanoyl]-[Asp14,Arg17,Pro21,Pro27,Arg35]-h-amylin (peptide)
peptide: K([γGlu-γGlu-C20 diacid])CNTATCATQRLADFLRHSSPNFGAIPSSTNVGSRTY-NH2
modifications: disulfide 2-7 (inferred)
notes: analogue of human amylin; also called compound 52
B3: N^α1 N^α1-[(4S)-4-carboxy-4-[[(4S)-4-carboxy-4-(19-carboxynonadecanoylamino)butanoyl]amino]butanoyl]-[Glu14,Arg17,Pro21,Pro27]-h-amylin (peptide)
peptide: {C20 diacid-γGlu-γGlu}-KCNTATCATQRLAEFLRHSSPNFGAIPSSTNVGSNTY-NH2
modifications: disulfide 2-7
SMILES: CC[C@H](C)[C@H](NC(=O)[C@H](C)NC(=O)CNC(=O)[C@H](Cc1ccccc1)NC(=O)[C@H](CC(N)=O)NC(=O)[C@@H]1CCCN1C(=O)[C@H](CO)NC(=O)[C@H](CO)NC(=O)[C@H](Cc1c[nH]cn1)NC(=O)[C@H](CCCNC(=N)N)NC(=O)[C@H](CC(C)C)NC(=O)[C@H](Cc1ccccc1)NC(=O)[C@H](CCC(=O)O)NC(=O)[C@H](C)NC(=O)[C@H](CC(C)C)NC(=O)[C@H](CCCNC(=N)N)NC(=O)[C@H](CCC(N)=O)NC(=O)[C@@H](NC(=O)[C@H](C)NC(=O)[C@@H]1CSSC[C@H](NC(=O)[C@H](CCCCN)NC(=O)CC[C@H](NC(=O)CC[C@H](NC(=O)CCCCCCCCCCCCCCCCCCC(=O)O)C(=O)O)C(=O)O)C(=O)N[C@@H](CC(N)=O)C(=O)N[C@@H]([C@@H](C)O)C(=O)N[C@@H](C)C(=O)N[C@@H]([C@@H](C)O)C(=O)N1)[C@@H](C)O)C(=O)N1CCC[C@H]1C(=O)N[C@@H](CO)C(=O)N[C@@H](CO)C(=O)N[C@H](C(=O)N[C@@H](CC(N)=O)C(=O)N[C@H](C(=O)NCC(=O)N[C@@H](CO)C(=O)N[C@@H](CC(N)=O)C(=O)N[C@H](C(=O)N[C@@H](Cc1ccc(O)cc1)C(N)=O)[C@@H](C)O)C(C)C)[C@@H](C)O
notes: also called compound 15
B4: N^α1-[2-[2-[2-[[2-[2-[2-[[(4S)-4-carboxy-4-(19-carboxynonadecanoylamino)butanoyl]amino]ethoxy]ethoxy]acetyl]amino]ethoxy]ethoxy]acetyl]-[Glu14,Arg17,Pro21,Pro27 … (peptide)
peptide: KCNTATCATQRLAEFLRHSSPNFGAIPSSTNVGSNTY
modifications: C20 diacid-gGlu-2xOEG on the alpha amino group of the N-terminal residue (position 1); disulfide bridge Cys2-Cys7; C-terminal amide
notes: also called compound 19
B5: N^α1-[2-[2-[2-[[2-[2-[2-[[(4S)-4-carboxy-4-(19-carboxynonadecanoylamino)butanoyl]amino]ethoxy]ethoxy]acetyl]amino]ethoxy]ethoxy]acetyl]-[Arg17,Pro21,Pro27]-h-am … (peptide)
peptide: KCNTATCATQRLANFLRHSSPNFGAIPSSTNVGSNTY
modifications: alpha-amino group of N-terminal Lys1 acylated with C20 diacid via gGlu-2xOEG linker; disulfide Cys2-Cys7; C-terminal amide
notes: h-amylin derivative; disulfide bridge and C-terminal amide as told for human amylin; also called compound 24
B6: N^α1-[(4S)-4-carboxy-4-(19-carboxynonadecanoylamino)butanoyl]-[Arg17,Pro21,Pro27,Lys35]-h-amylin (peptide)
peptide: KCNTATCATQRLANFLRHSSPNFGAIPSSTNVGSKTY
modifications: alpha-amino group of N-terminal Lys1 acylated with C20 diacid via gGlu linker; disulfide Cys2-Cys7; C-terminal amide
notes: h-amylin derivative; disulfide bridge and C-terminal amide as told for human amylin; also called compound 34

Tests used:
[1] = target: T1, rat amylin receptor (rat calcitonin …); assay: SPA competition with 125I-rat amylin, membranes of BHK cells with rat calcitonin receptor + rat RAMP3 (Assay VI)
rat calcitonin receptor = target: T2, rat calcitonin receptor; assay: SPA competition with 125I-calcitonin, membranes of BHK cells with rat calcitonin receptor (Assay VIII)
[2] = target: T3, human calcitonin receptor; assay: cell-based or functional assay
[3] = target: T4, human amylin 3(a) receptor (human …); assay: cell-based or functional assay
[4] = target: T4, human amylin 3(a) receptor (human …); assay: SPA competition binding, displacement of 125I-rat amylin from membranes of Amylin 3(a)/CRE-luc BHK cells (Assay V)
Summary of the method: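 SPA beads with BHK Amylin 3(a)/CRE-luc cell membranes (35 ng/μL final) in 50 mM Hepes pH 7.4, 1 mM CaCl2, 5 mM MgCl₂, 0.1% OA, 0.02% Tween20.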

[5] = target: T5, human calcitonin receptor; assay: cell-based or functional assay; remark: listed apart in the source

Row | Binder | IC50 [1] [nM] | IC50 (rat calcitonin receptor) [nM] | hCTR funct. EC50 [2] [nM] | Ratio hCT/hAmylin funct. [3] | hAmylin-R funct. EC50 [3] [nM] | IC50 [4] [nM] | hCTR funct. EC50 [5] [nM]
1 | B1 | 0.383 | 38 | – | – | – | – | –
2 | B2 | 0.335 | 159 | – | – | – | – | –
3 | B3 | – | – | 3.43 | 8.9 | 0.386 | 0.597 | –
4 | B4 | – | – | 5.32 | 17.4 | 0.307 | 0.556 | –
5 | B5 | – | – | – | – | – | – | 10
6 | B6 | – | – | – | – | – | – | 2.62
